This is an account of results in US20210292761, “COMPOSITIONS COMPRISING CIRCULAR POLYRIBONUCLEOTIDES AND USES THEREOF” (FLAGSHIP PIONEERING INNOVATIONS VI, LLC, published 2021).

In data set [1] the test system is NF-kB (endogenous, A549 cells) (Homo sapiens). The data set can be described thus: cell_activity. The conditions noted are these: A549, day 2 (89% day 1); 1 pmol transfected; indirect evidence of binding.
Data set [2] addresses T1, NF-kB p50 subunit (NFKB1) (UniProt P19838 P19838:1-433). The data set can be described thus: EMSA; 1 pmol RNA, 0-10 pmol p50; 20 mM Tris-HCl pH 8.0, 50 mM NaCl, 1 mM MgCl2, RT 20 min; affinity similar to linear. The conditions noted are these: tags: Cayman Chemical 10009818; chain copies: 2; circular (ligated with RNA ligase 1), aptamer hairpin with poly(A) flanks; printed with T, is RNA. The protocol: (§1) Electrophoretic mobility shift assay (EMSA) was performed to assess circular RNA binding affinity to NF-kB. One pmole of linear or circular RNA was incubated with recombinant NF-kB p50 subunit (Caymen Chemical, 10009818) at varying concentrations over the RNA concentration (i.e., 0, 0.1, 1, 10 pmoles of protein) for 20 minutes at room temperature in a buffered reaction (20 mM Tris-HCl, pH 8.0, 50 mM NaCl, 1 mM MgCl2). Samples were run a 6% TBE Urea gel for 25 minutes at 200V. Gels were stained with SybrGold (Thermo Scientific, S11494) and imaged with a blue E-gel imaging system (Thermo Scientific, 4466612).
On the technique in general: A gel shift assay detects complexes by their altered migration in electrophoresis.

In data set [3] the target is T1, NF-kB p50 subunit (NFKB1). The data set can be described thus: EMSA; 1 pmol RNA, 0-10 pmol p50; 20 mM Tris-HCl pH 8.0, 50 mM NaCl, 1 mM MgCl2, RT 20 min; affinity similar to circular. To be noted: tags: Cayman Chemical 10009818; chain copies: 2; linear; printed with T, is RNA. Here is the method: as §1
For data set [4], the target named is T1, NF-kB p50 subunit (NFKB1). The data set can be described thus: EMSA; scrambled control, same buffer. To be noted: tags: Cayman Chemical 10009818; chain copies: 2; hairpin; printed with T, is RNA. The protocol: as §1

T1 sequence (P19838 1-433, one chain of several): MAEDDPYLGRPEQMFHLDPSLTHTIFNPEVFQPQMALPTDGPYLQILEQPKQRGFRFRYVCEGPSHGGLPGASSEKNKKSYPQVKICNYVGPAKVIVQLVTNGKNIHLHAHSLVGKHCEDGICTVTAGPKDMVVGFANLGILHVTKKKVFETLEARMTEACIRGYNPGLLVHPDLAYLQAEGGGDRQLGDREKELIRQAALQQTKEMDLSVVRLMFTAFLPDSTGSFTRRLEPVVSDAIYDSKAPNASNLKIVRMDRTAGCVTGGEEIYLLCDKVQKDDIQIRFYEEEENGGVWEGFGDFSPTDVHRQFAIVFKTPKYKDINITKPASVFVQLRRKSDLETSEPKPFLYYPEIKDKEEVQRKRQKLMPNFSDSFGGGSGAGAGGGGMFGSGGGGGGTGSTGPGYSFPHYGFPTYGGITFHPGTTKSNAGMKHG

In turn, “AAAAAAAAAAGAUCUUGAAACUGUUUUAAGGUUGGCCGAUCUUAAAAAA [circular NF-kB aptamer RNA]” had an activity in data set [1] of 86 % viability. In the case of AAAAAAAAAAGAUCUUGAAACUGUUUUAAGGUUGGCCGAUCUUAAAAAA (ssRNA) [circular NF-kB aptamer RNA], the binding result in data set [2] is reported as “binds”.

With AAAAAAAAAAGAUCUUGAAACUGUUUUAAGGUUGGCCGAUCUUAAAAAA (ssRNA, 5' monophosphate) [linear NF-kB aptamer RNA], the binding result in data set [3] is “binds”.

B1: scrambled control RNA (ssRNA)
RNA: AAAAAAAUUCUCCGAACGUGUCACGUUUCAAGAGAACGUGACACGUUCGGAGAAAAAAAA
With B1, the binding result in data set [4] was “no binding”.
